In the RNAGym collection of RNA variant scans (doi:10.1093/molbev/msab373):

B1: Azoarcus group I ribozyme (parent)
chain: GUGCCUUGCGCCGGGAAACCACGCAAGGGAUGGUGUCAAAUUCGGCGAAACCUAAGCGCCCGCCCGGGCGUAUGGCAACGCCGAGCCAAGCUUCGGCGCCUGCGCCGAUGAAGGUGUAGAGACUAGACGGCACCCACCUAAGGCAAACGCUAUGGUGAAGGCAUAGUCCAGGGAGUGGCGAAAGUCACACAAACCGG

Variants of: B1
Experiment: reverse-splicing fitness (ratio to wild type); higher = more active; in vitro selection; Mg2+ level not given
How it was run: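 An in vitro group I ribozyme library with randomized positions was T7-transcribed and gel-purified. In triplicate, 10 pmol RNA in EPPS pH 7.5 was reacted with 50 pmoles of a 30-nt RNA substrate for 1 h at 37 °C across several added MgCl2 levels (1–48 mM), then stopped with EDTA. Products were reverse transcribed from a substrate-complementary primer, PCR-amplified and sequenced (HiSeq 4000). Fitness is a variant's read proportion after selection over that before, normalised to wild type.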

Compared with GUGCCUUGCGCCGGGAAACCACGCAAGGGAUGGUGUCAAAUUCGGCGAAACCUAAGCGCCCGCCCGGGCGUAUGGCAACGCUGAGCCAAGCUUCGGCGCCUGCGCCGAUGUAGGUGUAGCGACUAGACGGCACCCACCUAAGGCUAACGCUAUGGUGAAGGCAUAGUCUAGGGAGCGGCGAAAGUCACACAAACCGG, GUGCCUUGCGCCGGGAAACCACGCAAGGGAUGGUGUCAAAUUCGGCGAAACCUAAGCGCCCGCCCGGGCGUAUGGCAACGCUGAGCCAAGCUUCGGCGCCUGCGCCGAUGUAGGUGUAGCGACUAGACGGCACCCACCUAAGGCUAACGCUAUGGUGAAGGCAUAGUCUAGGGAGGGGCGAAAGUCACACAAACCGG is lower in reverse-splicing fitness: 0.0136 for the first, 0.00395 for the second.

First: GUGCCUUGCGCCGGGAAACCACGCAAGGGAUGGUGUCAAAUUCGGCGAAACCUAAGCGCCCGCCCGGGCGUAUGGCAACGCUGAGCCAAGCUUCGGCGCCUGCGCCGAUGUAGGUGUAGCGACUAGACGGCACCCACCUAAGGCUAACGCUAUGGUGAAGGCAUAGUCUAGGGAGAGGCGAAAGUCACACAAACCGG
Second: GUGCCUUGCGCCGGGAAACCACGCAAGGGAUGGUGUCAAAUUCGGCGAAACCUAAGCGCCCGCCCGGGCGUAUGGCAACGCUGAGCCAAGCUUCGGCGCCUGCGCCGAUGUAGGUGUAGCGACUAGACGGCACCCACCUAAGGCUAACGCUAUGGUGAAGGCAUAGUCCAGGGAGCGGCGAAAGUCACACAAACCGG
The reverse-splicing fitness of the first is lower: 0.0155 for the first, 0.0165 for the second.

First: GUGCCUUGCGCCGGGAAACCACGCAAGGGAUGGUGUCAAAUUCGGCGAAACCUAAGCGCCCGCCCGGGCGUAUGGCAACGCUGAGCCAAGCUUCGGCGCCUGCGCCGAUGUAGGUGUAGCGACUAGACGGCACCCACCUAAGGCUAACGCUAUGGUGAAGGCAUAGUCCAGGGAGAGGCGAAAGUCACACAAACCGG
Second: GUGCCUUGCGCCGGGAAACCACGCAAGGGAUGGUGUCAAAUUCGGCGAAACCUAAGCGCCCGCCCGGGCGUAUGGCAACGCUGAGCCAAGCUUCGGCGCCUGCGCCGAUGUAGGUGUAGCGACUAGACGGCACCCACCUAAGGCUAACGCUAUGGUGAAGGCAUAGUCCAGGGAGGGGCGAAAGUCACACAAACCGG
The reverse-splicing fitness of the first is higher: 0.0127 for the first, 0.00445 for the second.

Going from GUGCCUUGCGCCGGGAAACCACGCAAGGGAUGGUGUCAAAUUCGGCGAAACCUAAGCGCCCGCCCGGGCGUAUGGCAACGCUGAGCCAAGCUUCGGCGCCUGCGCCGAUGUAGGUGUAGCGACUAGACGGCACCCACCUAAGGCAAACGAUAUGGUGAAGGCAUAGUCAAGGGAGAGGCGAAAGUCACACAAACCGG to GUGCCUUGCGCCGGGAAACCACGCAAGGGAUGGUGUCAAAUUCGGCGAAACCUAAGCGCCCGCCCGGGCGUAUGGCAACGCUGAGCCAAGCUUCGGCGCCUGCGCCGAUGUAGGUGUAGCGACUAGACGGCACCCACCUAAGGCUAACGCUAUGGUGAAGGCAUAGUCGAGGGAGUGGCGAAAGUCACACAAACCGG, the reverse-splicing fitness falls from 0.0182 to 0.00727.

Going from GUGCCUUGCGCCGGGAAACCACGCAAGGGAUGGUGUCAAAUUCGGCGAAACCUAAGCGCCCGCCCGGGCGUAUGGCAACGCUGAGCCAAGCUUCGGCGCCUGCGCCGAUGUAGGUGUAGCGACUAGACGGCACCCACCUAAGGCUAACGCUAUGGUGAAGGCAUAGUCUAGGGAGUGGCGAAAGUCACACAAACCGG to GUGCCUUGCGCCGGGAAACCACGCAAGGGAUGGUGUCAAAUUCGGCGAAACCUAAGCGCCCGCCCGGGCGUAUGGCAACGCUGAGCCAAGCUUCGGCGCCUGCGCCGAUGUAGGUGUAGCGACUAGACGGCACCCACCUAAGGCUAACGCUAUGGUGAAGGCAUAGUCAAGGGAGGGGCGAAAGUCACACAAACCGG, the reverse-splicing fitness falls from 0.0107 to 0.00442.

Compared with GUGCCUUGCGCCGGGAAACCACGCAAGGGAUGGUGUCAAAUUCGGCGAAACCUAAGCGCCCGCCCGGGCGUAUGGCAACGCUGAGCCAAGCUUCGGCGCCUGCGCCGAUGUAGGUGUAGCGACUAGACGGCACCCACCUAAGGCAAACGAUAUGGUGAAGGCAUAGUCAAGGGAGUGGCGAAAGUCACACAAACCGG, GUGCCUUGCGCCGGGAAACCACGCAAGGGAUGGUGUCAAAUUCGGCGAAACCUAAGCGCCCGCCCGGGCGUAUGGCAACGCUGAGCCAAGCUUCGGCGCCUGCGCCGAUGUAGGUGUAGCGACUAGACGGCACCCACCUAAGGCUAACGCUAUGGUGAAGGCAUAGUCGAGGGAGCGGCGAAAGUCACACAAACCGG is lower in reverse-splicing fitness: 0.00966 for the first, 0.00955 for the second.

Going from GUGCCUUGCGCCGGGAAACCACGCAAGGGAUGGUGUCAAAUUCGGCGAAACCUAAGCGCCCGCCCGGGCGUAUGGCAACGCUGAGCCAAGCUUCGGCGCCUGCGCCGAUGUAGGUGUAGCGACUAGACGGCACCCACCUAAGGCUAACGCUAUGGUGAAGGCAUAGUCGAGGGAGGGGCGAAAGUCACACAAACCGG to GUGCCUUGCGCCGGGAAACCACGCAAGGGAUGGUGUCAAAUUCGGCGAAACCUAAGCGCCCGCCCGGGCGUAUGGCAACGCUGAGCCAAGCUUCGGCGCCUGCGCCGAUGUAGGUGUAGCGACUAGACGGCACCCACCUAAGGCUAACGCUAUGGUGAAGGCAUAGUCGAGGGAGAGGCGAAAGUCACACAAACCGG, the reverse-splicing fitness rises from 0.00433 to 0.00882.

GUGCCUUGCGCCGGGAAACCACGCAAGGGAUGGUGUCAAAUUCGGCGAAACCUAAGCGCCCGCCCGGGCGUAUGGCAACGCUGAGCCAAGCUUCGGCGCCUGCGCCGAUGUAGGUGUAGCGACUAGACGGCACCCACCUAAGGCAAACGAUAUGGUGAAGGCAUAGUCCAGGGAGUGGCGAAAGUCACACAAACCGG showed a reverse-splicing fitness of 0.0106.
